From patent US10246503B2, “Method of improving the pharmacokinetic profile of a therapeutic polypeptide and the use thereof” (BEIJING ANXINHUAIDE BIOTECH. CO., LTD, priority 2012, dated 2019)

Experiments:
[1] = pharmacokinetics in Sprague-Dawley rats, sandwich ELISA (Example 6); type: in vivo; settings: Sprague-Dawley rat, intraperitoneal, 0.66/0.72/0.75/0.78 mg/kg respectively
Experimental: To evaluate the pharmacokinetics profiles for the GLP-1 containing fusion proteins generated using the method of the invention, we purified GLP-1(A8G/G22E/R36S)-Fn8-COL18NC1, GLP-1(A8G/G22E/R36S)-Fn8-COL18NC1-20, GLP-1(A8G/G22E/R36S)-Fn8-COL18NC1-30, GLP-1(A8G/G22E/R36S)-Fn8-COL18NC1-54 in PBS buffer, pH 7.2. These fusion proteins were administered on Sprague-Dawley (SD) rats by intraperitoneal injections at the doses of 0.66 mg/kg, 0.72 mg/kg, 0.75 mg/kg, 0.78 mg/kg animal respectively. Blood samples were taken at various time points after injections such as 0-min, 30-min, 1-hour, 2-hour, 4-hour, 8-hour, 24-hour, 48-hour, 3-day, 4-day, 5-day. 7-day, 10-day. The serum samples were centrifuged and kept at −80° C. freezer.
(§1) The GLP-1 concentrations within the serum samples were examined by use of the sandwich ELISA method. The rabbit polyclonal antibody against human Fibronectin at the concentration of 3 ug/ml (Ab299, Abcam company) was coated on ELISA plate for 1 hour at room temperature. Then the plate was washed by PBST buffer three times and the wells were blocked by PBS with 10% FBS for 1 hour at room temperature. The plate was washed three times before the serum samples containing GLP-1 fusion proteins were added. The serum samples could be diluted to 20-10000 folds before use. The ELISA plate was incubated with the serum samples at room temperature for 1 hour and then washed by PBST buffer five times. Then mouse monoclonal against human GLP-1 peptide antibody (sc57510, Santa Cruz Biotechology) at the concentration of 1 ug/ml in PBST buffer was added to the wells. The plate was washed extensively after incubation of 1 hour at room temperature. The secondary antibody, […] HRP conjugated antibody (Beijing ZSGB-Bio company, ZB 5301), was added into the wells and the color was developed using TMB (3,3′,5,5′-tetramethylbenzidine, BD Biosciences, Cat 555214). The plate reader (Bio-Rad microplate reader Model 680) was utilized to obtain the OD450 readings. This method has been calibrated using purified proteins first.
The pharmacokinetics parameters were obtained by using the WinNonlin software (Table 3).

[2] = analytical gel filtration (Superdex200), apparent molecular weight; type: physicochemical
Excerpt: In the fusion protein of GLP-1(A8G/G22E)-Fn8-COL18NC1 described in example 4, the flexible unstructured linker between Fn8 and COL18NC1 contains six residues (GGGSGG; SEQ ID NO:89). To generate the flexible un-structured linkers with different lengths, we have synthesized the genes GLP-1(A8G/G22E/R36S)-Fn8-COL18NC1-20, GLP-1(A8G/G22E/R36S)-Fn8-COL18NC1-30, GLP-1(A8G/G22E/R36S)-Fn8-COL18NC1-54 and GLP-1(A8G/G22E/R36S)-Fn8-COL18NC1-60. In these genes, the length of the flexible unstructured polypeptide linker between Fn8 and COL18NC1 contained 20, 30, 54 and 60 residues, respectively. The protein sequences of GLP-1(A8G/G22E/R36S)-Fn8-COL18NC1-20, GLP-1(A8G/G22E/R36S)-Fn8-COL18NC1-30, GLP-1(A8G/G22E/R36S)-Fn8-COL18NC1-54 and GLP-1(A8G/G22E/R36S)-Fn8-COL18NC1-60 are listed as SEQ ID NO:8-11. The synthetic genes of GLP-1(A8G/G22E/R36S)-Fn8-COL18NC1-20, GLP-1(A8G/G22E/R36S)-Fn8-COL18NC1-30, GLP-1(A8G/G22E/R36S)-Fn8-COL18NC1-54 and GLP-1(A8G/G22E/R36S)-Fn8-COL18NC1-60 were grafted to the pET29b by NdeI and XhoI for protein expressions. The expression and purification of these fusion proteins were carried out using similar protocols described in example 3. To estimate the hydrodynamic radius and/or the Rg of the fusion proteins, the purified proteins were loaded on an analytical gel filtration column Superdex200 (GE Healthcare).
Moreover, the flexible unstructured linker between the therapeutic polypeptide and the scaffold protein may adjust the hydrodynamic radius and/or the Rg of the fusion molecule in a tunable manner.
The apparent molecular weights of the fusion proteins were estimated by use of an analytical gel filtration column Superdex-200 (GE Healthcare) mounted on the AKTA FPLC system (GE Healthcare). The purified fusion proteins GLP-1-Fn8, GLP-1-Fn8-COL18NC1, GLP-1(A8G/G22E/R36G)-Fn8-p246-COL18NC1 were loaded on the Superdex200 column. GLP-1-Fn8 is a fusion protein of GLP-1 and Fn8 and contains the first 144 amino acid residues of the fusion protein GLP-1-Fn8-COL18NC1 (SEQ ID NO:2). […] The genuine molecular weights for the fusion proteins GLP-1-Fn8 monomer, GLP-1-Fn8-COL18NC1 trimer, and GLP-1(A8G/G22E/R36G)-Fn8-p246-COL18NC1 trimer were ˜15 Kd, 65 Kd and 123Kd, respectively.

[3] = biological target: human GLP-1 receptor (GLP-1R) (human, UniProt P43220 24-463); assay: cell-based or functional assay
[4] = pharmacokinetics in SD rats, sandwich ELISA (Example 15); type: in vivo, SD (Sprague-Dawley) rats; settings: intraperitoneal, 5 nmol/kg
Experimental: To evaluate the pharmacokinetics profiles for the GLP-1 containing fusion proteins generated using the method of the invention, we purified the recombinant fusion proteins of GLP-1-Fn8-COL18NC1, GLP1(A8G/G22E/R36G)-Fn8-p246-COL18NC1 and GLP1(A8G/G22E/R36G)-Fn8-p285-COL18NC1 in PBS buffer, pH 7.2. These fusion proteins were administered into SD (Sprague-Dawley) rats by intraperitoneal injections at the dose of 5 nmol/kg for animals, respectively. Blood samples were taken at various time points after injections such as 0-min, 30-min, 1-hour, 2-hour, 4-hour, 6-hour, 8-hour, 24-hour, 48-hour, 3-day, 4-day, 5-day, 6-day and 7-day. The serum samples were centrifuged and kept at −80° C. freezer.
as §1, with “within the samples were” for “within the serum samples were”, “Santa Cruz Biotechnology) at the” for “Santa Cruz Biotechology) at the”
The pharmacokinetics parameters were obtained by using the WinNonlin software (Table 5).

Molecule | AUC(0-t) [1] [µg·h/mL] | AUCinf [1] [µg·h/mL] | CL [1] [mL/h/kg] | Cmax [1] [µg/mL] | T½ [1] [h] | V [1] [mL/kg] | apparent molecular weight [2] | EC50 (nM) measured by cAMP assay [3] [nM] | AUCall ([4]; Rats) [µg·h/mL] | CL/F ([4]; Rats) [mL/h/kg] | Cmax ([4]; Rats) [µg/mL] | T½ ([4]; Rats) [h] | Vss ([4]; Rats) [mL/kg] | half life ([4]; SD rats) [h]
GLP-1(A8G/G22E/R36S)-Fn8-COL18NC1-30 (ligand) HGEGTFTSDVSSYLEEQAAKEFIAWLVKGSGGGGSGGAVPPPTDLRFTNIGPDTMRVTWAPPPSIDLTNFLVRYSPVKNEEDVAELSISPSDNAVVLTNLLPGTEYVVSVSSVYEQHESTPLRGRQKTGGGGGSGGGGSASSASTGGPSGGGGSGGGGSGASSGVRLWATRQAMLGQVHEVPEGWLIFVAEQEELYVRVQNGFRKVQLEARTPLPRG | 47.58 | 47.6 | 46.04 | 2.15 | 7.22 | 479.81 | larger apparent molecular weight than their genuine molecular weight | 1.3 |  |  |  |  |  | 
GLP-1(A8G/G22E/R36S)-Fn8-COL18NC1-54 (ligand) HGEGTFTSDVSSYLEEQAAKEFIAWLVKGSGGGGSGGAVPPPTDLRFTNIGPDTMRVTWAPPPSIDLTNFLVRYSPVKNEEDVAELSISPSDNAVVLTNLLPGTEYVVSVSSVYEQHESTPLRGRQKTGGGGGSGGGGSTASSASTGGPSGGGGSGGGGSAPSSGSTSGGTAAGGGGSGGGGSGASSGVRLWATRQAMLGQVHEVPEGWLIFVAEQEELYVRVQNGFRKVQLEARTPLPRG | 86.64 | 86.67 | 27.06 | 2.64 | 9.10 | 350.86 | ~200 Kd | 0.5 |  |  |  |  |  | 
GLP-1(A8G/G22E/R36S)-Fn8-COL18NC1-60 (ligand) HGEGTFTSDVSSYLEEQAAKEFIAWLVKGSGGGGSGGAVPPPTDLRFTNIGPDTMRVTWAPPPSIDLTNFLVRYSPVKNEEDVAELSISPSDNAVVLTNLLPGTEYVVSVSSVYEQHESTPLRGRQKTGGGGSGGGSGGGSTASSASTKGPSGGGSGGGSGGGSAPSSKSTSGGTAAGGGSGGGSGGGSGASSGVRLWATRQAMLGQVHEVPEGWLIFVAEQEELYVRVQNGFRKVQLEARTPLPRG |  |  |  |  |  |  | ~200 Kd | 0.5 |  |  |  |  |  | 
GLP-1(A8G/G22E/R36S)-Fn8-COL18NC1 (ligand) HGEGTFTSDVSSYLEEQAAKEFIAWLVKGSGGGGSGGGGSAVPPPTDLRFTNIGPDTMRVTWAPPPSIDLTNFLVRYSPVKNEEDVAELSISPSDNAVVLTNLLPGTEYVVSVSSVYEQHESTPLRGRQKTGGGGSGGGASSGVRLWATRQAMLGQVHEVPEGWLIFVAEQEELYVRVQNGFRKVQLEARTPLPRG |  |  |  |  |  |  | ~100 Kd | 1.3 |  |  |  |  |  | 
GLP-1(A8G/G22E/R36S)-Fn8-COL18NC1-20 (ligand) HGEGTFTSDVSSYLEEQAAKEFIAWLVKGSGGGGSGGAVPPPTDLRFTNIGPDTMRVTWAPPPSIDLTNFLVRYSPVKNEEDVAELSISPSDNAVVLTNLLPGTEYVVSVSSVYEQHESTPLRGRQKTGGGGGSGGGGSGGGGSGGGGSGASSGVRLWATRQAMLGQVHEVPEGWLIFVAEQEELYVRVQNGFRKVQLEARTPLPRG | 36.21 | 37.24 | 57.03 | 2.26 | 6.45 | 530.16 | larger apparent molecular weight than their genuine molecular weight | 1.4 |  |  |  |  |  | 
GLP-1-Fn8: fusion protein of GLP-1 and Fn8, first 144 residues of SEQ ID NO:2; monomer in solution (protein) HAEGTFTSDVSSYLEGQAAKEFIAWLVKGRGGGGSGGGGSAVPPPTDLRFTNIGPDTMRVTWAPPPSIDLTNFLVRYSPVKNEEDVAELSISPSDNAVVLTNLLPGTEYVVSVSSVYEQHESTPLRGRQKTGGGGSGGGASSGV |  |  |  |  |  |  | ~20 Kd |  |  |  |  |  |  | 
GLP1(A8G/G22E/R36G)-Fn8-p285-COL18NC1: fusion with Fn8, pCloud p285 and COL18NC1; SEQ ID NO: 23 (protein) HGEGTFTSDVSSYLEEQAAKEFIAWLVKGGGSGGGSGGGSGGGSGGGSGSGGAVPPPTDLRFTNIGPDTMRVTWAPPPSIDLTNFLVRYSPVKNEEDVAELSISPSDNAVVLTNLLPGTEYVVSVSSVYEQHESTPLRGRQKTGGGGSGGGSGSGSESGSGGGSTSSGTGSETESPGSGSESGSGPSSAGSGSGSESGSGSGSSGPGSTGGSGSESGSGPGSSGTGGTATGSGSESGSGPGSSGPGSTGSGSGSESGSGSGSSGTGSTGGSGSESGSGPGSPRPGSTGTGSGSESGSGPGSSERGSAGGSGSESGSGTSESSASGSTGGSGSESGSGSESGSGSGSESGSGPESPGSGGSGSESGSGTSGSTGSGSESGSGPGSSGPGSTGSGSGSESGSGSGSSGTGSTGGSGSESGSGGGSGGGSGGGASSGVRLWATRQAMLGQVHEVPEGWLIFVAEQEELYVRVQNGFRKVQLEARTPLPRG |  |  |  |  |  |  |  |  | 475.3 | 1.37 | 7.98 | 31.2 | 62.0 | 31.2
